Experimental findings from patent US20100279930A1 (published 2010) are described below.

Usually IC50 stands for the concentration needed to halve the response being measured.

For the assay, the target named is human Y4 receptor (human, UniProt P50391 1-375). The assay can be described thus: 125I-PP displacement.
Sequence of human Y4 receptor (P50391 whole entry): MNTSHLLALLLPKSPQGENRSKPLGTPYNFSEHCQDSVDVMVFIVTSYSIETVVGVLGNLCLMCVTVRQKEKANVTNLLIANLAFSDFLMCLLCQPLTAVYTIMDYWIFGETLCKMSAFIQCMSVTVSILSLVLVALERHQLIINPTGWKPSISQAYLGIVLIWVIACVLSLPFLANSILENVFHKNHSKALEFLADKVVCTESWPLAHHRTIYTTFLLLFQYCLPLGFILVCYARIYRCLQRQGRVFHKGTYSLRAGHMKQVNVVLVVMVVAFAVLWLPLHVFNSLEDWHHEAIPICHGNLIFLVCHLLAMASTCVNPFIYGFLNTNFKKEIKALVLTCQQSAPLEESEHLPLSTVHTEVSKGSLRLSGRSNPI

In turn, YAPLEPEYPGDDATPQQKARYAAELRRYIDKLTRPRY [4060682] displayed an IC50 of 0.131 nM. That is a sub-nanomolar value.

On to AAPLEPEYPGDDATPQQKARYAAELRRYINKLTRPRY [4060686], for which the IC50 amounted to 0.055 nM.

For the molecule YAPLEPEAPGDDATPQQKARYAAELRRYINKLTRPRY [4060681], the IC50 came to 0.136 nM.

In turn, GAPLEPEYPGDNATPEQLARYAAALRRYINKLTRPRY [4060356] came in with an IC50 of 0.091 nM.

In the case of PAPLEPEYPGDNATPEQKAKYAAALRRYINHLTRPRY [4060275], the IC50 stood at 0.106 nM.

With PAPLEPEYPGDNATPEQKAKYAAALRRYINRLTRPRY [4060278], the concentration for half-maximal inhibition (IC50) was found to be 0.062 nM.

GAPLEPEYPGDNATPEQMARYAAALRRYINHLTRPRY [4060358] came in with an IC50 of 0.08 nM.

In the case of AAPLEPTYPGDNATPEQMARYAAALRRYIDKLTRPRY [4060695], the IC50 amounted to 0.091 nM.

As to GAPLEPEYPGDNATPEQKAKYAAALRRYINRLTRPRY [4060301], the IC50 was determined as 0.036 nM.

GAPLEPEYPGDNATPEQKARYAAALRRYINKLTRPRY [4060309] displayed an IC50 of 0.046 nM.

On to GAPLEPVYPGDNATPEQLAKYAAELRRYIDKLTRPRY [4060897], for which the IC50 was 0.137 nM.

GAPLEPEYPGDNATPEEMARYAAALRRYINKLTRPRY [4060359]: the IC50 amounted to 0.099 nM.

As to GAPLEPEYPGDNATPEQMAKYAAALRRYIDKLTRPRY [4060896], the IC50 came to 0.114 nM.

GAPLEPEYPGDDATPEQKARYAAALRRYINKLTRPRY [4060311] yielded an IC50 of 0.099 nM.

PAPLEPTYPGDNATPEQKAKYYSELRRYINKLTRPRY [4060280] had an IC50 of 0.064 nM.

YAPLEPTYPGDNATPEQKAKYAAELRRYIDKLTRPRY [4061083] had a half-inhibitory concentration (IC50) of 0.124 nM. This IC50 is about 1.9-fold higher than that of the molecule before.

For PAPLEPKYPGDNATPEQLAKYYSELRRYIDKLTRPRY [4060605], the IC50 amounted to 0.14 nM.

Consider GAPLEPTYPGDNATPEQLAKYYSELRRYIDKLTRPRY [4060606], for which the IC50 stood at 0.131 nM.

The molecule GAPLEPEAPGDNATPEQMAKYYSELRRYINKLTRPRY [4060691] gave an IC50 of 0.153 nM.

GAPLEPTYPGDNATPEELAKYYSELRRYINKLTRPRY [4060315] gave an IC50 of 0.097 nM.

In the case of PAPLEPTYPGDNATPEQLAKYYSELRRYINRLTRPRY [4060277], the half-maximal inhibitory concentration (IC50) turned out to be 0.076 nM.

For the molecule PAPLEPKAPGDNATPEQMAKYYSELRRYIDKLTRPRY [4060680], the 50% inhibitory concentration (IC50) was determined as 0.109 nM.

GAPLEPTYPGDDATPEQLAKYYSELRRYINHLTRPRY [4060306] showed an IC50 of 0.098 nM. This IC50 and that of the molecule before are within 1.5-fold of each other.

Take AAPLEPTYPGDNATPEQKAKYAAELRRYIDKLTRPRY [4061082]: the IC50 was determined as 0.158 nM.

Regarding GAPLEPTYPGDNATPEQKAKYYSELRRYINKLTRPRY [4060279], the IC50 came out at 0.067 nM.

In the case of PAPLEPKYPGDNATPEQMAKYYSELRRYIDRLTRPRY [4060603], the IC50 came to 0.102 nM. Against the preceding molecule, the IC50 is about 1.5-fold higher.

Molecule GAPLEPTYPGDNATPEQLAKYYSELRRYINKLTRPRF [4060283] gave an IC50 of 0.073 nM.

Consider PAPLEPTYPGDNATPEQLAKYYSELRRYINKLTRPRF [4060284], for which the IC50 came to 0.055 nM. The IC50 values of the last two molecules are within 1.5-fold of each other.

GAPLEPTYPGDNATPEQLAKYYSELRRYINRLTRPRY [4060276] gave a half-maximal inhibitory concentration (IC50) of 0.073 nM.

PAPLEPVYPGDNATPEQKAKYAAELRRYIDKLTRPRY [4061085] yielded an IC50 of 0.159 nM. This IC50 lies about 2.2-fold higher than the previous one.

With PAPLEPKYPGDNATPEEMAKYYSELRRYIDKLTRPRY [4060894], the IC50 came to 0.126 nM.

In turn, PAPLEPKYPGDNATPEQMAKYYSELRRYIDHLTRPRY [4060602] came in with an IC50 of 0.173 nM.

GAPLEPEAPGDNATPEQMAKYYSELRRYIDKLTRPRY [4060693] showed an IC50 of 0.172 nM.

Turning to GAPLEPVAPGDNATPEQMARYYSELRRYIDKLTRPRY [4060690], the IC50 is 0.171 nM.

On to GAPLEPVYPGDNATPEQMARYYSELRRYIDKLTRPRY [4060604], for which the IC50 came out at 0.121 nM.

Consider PAPLEPKYPGDNATPEQLAKYAAELRRYIDKLTRPRY [4060893], for which the IC50 was 0.11 nM.

GAPLEPVYPGDNATPEQKAKYAAELRRYIDHLTRPRY [4061086] came in with an IC50 of 0.213 nM.

As for GAPLEPVYPGDNATPEQKAKYAAELRRYIDRLTRPRY [4061090], the IC50 was 0.1 nM.

The molecule PAPLEPVYPGDNATPEQKAKYAAELRRYIDRLTRPRY [4061091] yielded a concentration for half-maximal inhibition (IC50) of 0.107 nM.

GAPLEPVYPGDNATPEQKAKYAAELRRYIDKLTRPRY [4061084]: the IC50 was 0.174 nM.

Regarding PAPLEPVYPGDNATPEQKAKYAAELRRYIDHLTRPRY [4061087], the IC50 was determined as 0.218 nM.
